From patent US20080058272A1, “Nonamer Peptides for Cancer Treatment” (priority 2006, published 2008) come the findings set out here.

T1: HLA-A2 (human), P04439
T1 chain: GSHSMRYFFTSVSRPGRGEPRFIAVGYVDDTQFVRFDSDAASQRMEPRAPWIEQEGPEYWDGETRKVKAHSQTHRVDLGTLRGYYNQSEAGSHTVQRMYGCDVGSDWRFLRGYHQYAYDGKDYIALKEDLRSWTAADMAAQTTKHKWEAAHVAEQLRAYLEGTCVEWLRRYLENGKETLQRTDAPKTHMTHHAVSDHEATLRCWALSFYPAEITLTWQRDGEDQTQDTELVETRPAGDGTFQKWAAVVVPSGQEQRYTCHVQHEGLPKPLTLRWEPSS

In the assay the target is T1, HLA-A2 (human), P04439. Kind of assay: competitive binding assay (flow cytometry). The following applies: modification not given.
For the molecule ALLVMCIVL [FAPα18-26 (…)], the IC50 worked out at 650 µM.

In turn, VLALLVMCI [FAPα16-24 (…)] came in with a half-maximal inhibitory concentration (IC50) of 150 µM.

Turning to KLLEENKEV [FAPα486-494 (487L, 494V) (…)], the IC50 amounted to 25.4 µM.

ALVCYGPGL [FAPα463-471 (471L) (…)] came in with a 50% inhibitory concentration (IC50) of 3.9 µM.

KLLEENKEL [FAPα486-494 (487L) (…)]: the IC50 worked out at 21.3 µM.

ALVCYGPGV [FAPα463-471 (471V) (…)]: the half-maximal inhibitory concentration (IC50) was 4.6 µM.
